According to patent US7118889 (US Dept. of Health and Human Services, dated 2006):

How the values were obtained:
[1] = molecular target: Lck protein tyrosine kinase (transfected in 293T cells) (UniProt P06239 2-509, limits assumed); experiment: co-immunoprecipitation from transfected 293T cells
Procedure: Figure 4B: FIG. 4(B) is a representative immunoblot, showing association of LAT with signaling molecules in 293T cells. FLAG-tagged LAT was cotransfected with pCEFL/HA-Grb2, pSRα/Grap-myc, pcDNA3/HA-p85 and pcDNA3/PLC-γ1 in the absence or presence of ZAP-70 and Lck PTKs. Brij lysates of transfected 293T cells were immunoprecipitated with anti-FLAG, and association of LAT with tested proteins was determined by blotting with specific antibodies.
In this example, association of LAT with Grb2, Grap, PI3K and PLC-γ1 is shown in 293T cells. To investigate the association of LAT with critical signaling molecules, FLAG-tagged LAT in the pcDNA3 vector was cotransfected in 293T cells with plasmids expressing HA-tagged Grb2, Myc-tagged Grap, HA-tagged p85 subunit of PI3K or PLC-γ1, in the presence or absence of both ZAP-70 and Lck. LAT was immunoprecipitated with anti-FLAG antibody, and associated proteins were detected by blotting with specific antibodies. […] When LAT and the two PTKs were coexpressed with HA-tagged Grb2, both endogenous Grb2 and HA-Grb2 bound to phosphorylated LAT (HA-Grb2 migrates more slowly than endogenous Grb2 on SDS-PAGE). Myc-tagged Grap, the Grb2-like protein, when coexpressed with LAT in the presence of the two PTKs, also associated with phosphorylated LAT. […] HA-tagged p85 or PLC-γ1 also associated with phosphorylated LAT. […]

[2] = molecular target: T1, SLP-76, endogenous, Jurkat T cells (human, UniProt Q13094 1-533, tyrosine phosphorylated in stimulated cells); experiment: anti-myc immunoprecipitation from C305-stimulated stable Jurkat transfectants, immunoblot
T1 construct: mature; also called 76 kD protein; SH2-domain Leukocyte Protein
T1 sequence (looked up): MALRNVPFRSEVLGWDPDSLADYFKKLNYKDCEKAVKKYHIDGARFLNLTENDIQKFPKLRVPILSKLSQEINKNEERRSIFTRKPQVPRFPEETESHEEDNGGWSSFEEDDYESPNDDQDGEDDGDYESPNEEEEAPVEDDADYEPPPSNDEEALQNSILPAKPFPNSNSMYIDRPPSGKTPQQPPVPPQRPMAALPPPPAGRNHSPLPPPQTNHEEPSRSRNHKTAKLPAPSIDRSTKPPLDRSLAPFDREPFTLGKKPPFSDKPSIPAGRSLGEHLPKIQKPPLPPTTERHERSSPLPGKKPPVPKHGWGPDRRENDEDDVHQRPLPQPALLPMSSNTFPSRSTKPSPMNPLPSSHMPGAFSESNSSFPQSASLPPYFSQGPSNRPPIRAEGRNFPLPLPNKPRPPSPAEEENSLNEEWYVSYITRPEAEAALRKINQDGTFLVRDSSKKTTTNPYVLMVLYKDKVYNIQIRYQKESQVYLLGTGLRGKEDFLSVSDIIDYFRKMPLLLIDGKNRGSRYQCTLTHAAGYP
Procedure: (§1) Exogenous LAT was immunoprecipitated with anti-myc antibody from cells either left unstimulated or stimulated with C305 (1:50). Samples were analyzed on SDS-PAGE and blotted with 4G10. The same membrane was also blotted with anti-PLC-γ1, anti-p85, anti-Grb2, anti-SOS, and anti-LAT after stripping.
(§2) Myc-tagged LAT was immunoprecipitated with anti-myc antibody from unstimulated or C305 stimulated transfectants. […] The myc-tagged LAT appears as a doublet as does endogenous LAT. […] In addition, mutations at Y171 and Y191 prevented the association of SLP-76, Vav and Cbl, but the 70 kDa tyrosine-phosphorylated protein remained associated with LAT. […] The association with SOS was also disrupted by the double Y to F mutations.

[3] = molecular target: T2, p85 subunit of PI3K, endogenous, Jurkat T cells (human, UniProt P27986 2-724); experiment: as above
T2 construct: mature; also called p85 subunit of PI-3 kinase
Procedure: as §1, §2

[4] = molecular target: T3, Vav, endogenous, Jurkat T cells (human, UniProt P15498 1-845, tyrosine phosphorylated in stimulated cells); experiment: as above
T3 construct: also called Vav (100 kD)
T3 sequence (looked up): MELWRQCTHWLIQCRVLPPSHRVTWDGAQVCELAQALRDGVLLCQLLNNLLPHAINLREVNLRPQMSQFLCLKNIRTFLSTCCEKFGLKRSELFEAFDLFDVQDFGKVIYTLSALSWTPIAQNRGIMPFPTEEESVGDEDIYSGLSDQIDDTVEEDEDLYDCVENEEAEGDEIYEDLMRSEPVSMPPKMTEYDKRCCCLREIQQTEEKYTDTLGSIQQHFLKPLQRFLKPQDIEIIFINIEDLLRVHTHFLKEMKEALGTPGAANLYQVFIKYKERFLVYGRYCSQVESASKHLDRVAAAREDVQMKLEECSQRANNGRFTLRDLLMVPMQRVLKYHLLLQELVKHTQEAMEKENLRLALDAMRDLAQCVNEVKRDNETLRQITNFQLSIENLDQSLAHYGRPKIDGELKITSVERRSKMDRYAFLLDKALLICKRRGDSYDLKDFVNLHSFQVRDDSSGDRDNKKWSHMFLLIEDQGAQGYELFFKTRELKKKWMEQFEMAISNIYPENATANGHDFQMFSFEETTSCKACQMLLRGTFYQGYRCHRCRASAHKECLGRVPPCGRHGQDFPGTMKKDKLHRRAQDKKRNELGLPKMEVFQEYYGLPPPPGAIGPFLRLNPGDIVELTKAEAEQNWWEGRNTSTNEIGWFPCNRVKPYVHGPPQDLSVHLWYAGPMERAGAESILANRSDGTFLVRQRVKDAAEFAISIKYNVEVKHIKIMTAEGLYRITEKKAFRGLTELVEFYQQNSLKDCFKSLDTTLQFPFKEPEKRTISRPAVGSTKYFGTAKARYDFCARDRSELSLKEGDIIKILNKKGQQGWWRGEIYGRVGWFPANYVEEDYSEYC
Procedure: as §1, §2

[5] = molecular target: T4, Grb2, endogenous (293T cells and Jurkat T cells) (human, UniProt P62993 1-217); experiment: as above
T4 construct: Endogenous protein of human cell lines; also called endogenous Grb2; Grb2 linker protein
Procedure: as §1, §2

[6] = molecular target: T5, Cbl, endogenous, Jurkat T cells (human, UniProt P22681 1-906, tyrosine phosphorylated in stimulated cells); experiment: as above
T5 construct: also called Cbl (120 kD); c-cbl
Procedure: as §1, §2

Measured: binding result

Chain of Lck protein tyrosine kinase (transfected in 293T cells) (P06239 2-509 limits assumed): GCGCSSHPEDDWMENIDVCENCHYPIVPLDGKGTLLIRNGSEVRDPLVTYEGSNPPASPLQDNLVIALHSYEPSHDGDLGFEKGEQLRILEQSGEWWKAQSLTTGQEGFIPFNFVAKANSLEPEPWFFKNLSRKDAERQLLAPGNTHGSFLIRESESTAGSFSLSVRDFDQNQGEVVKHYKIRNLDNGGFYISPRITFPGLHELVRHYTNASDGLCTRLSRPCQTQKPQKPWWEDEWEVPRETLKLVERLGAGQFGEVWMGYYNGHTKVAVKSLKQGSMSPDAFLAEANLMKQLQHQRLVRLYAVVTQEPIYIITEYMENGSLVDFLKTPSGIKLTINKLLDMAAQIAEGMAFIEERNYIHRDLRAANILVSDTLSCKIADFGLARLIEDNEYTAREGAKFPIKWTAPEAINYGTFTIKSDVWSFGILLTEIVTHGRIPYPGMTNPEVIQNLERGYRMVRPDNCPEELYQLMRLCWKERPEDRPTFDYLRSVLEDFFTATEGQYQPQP
T4 sequence (P62993 whole entry): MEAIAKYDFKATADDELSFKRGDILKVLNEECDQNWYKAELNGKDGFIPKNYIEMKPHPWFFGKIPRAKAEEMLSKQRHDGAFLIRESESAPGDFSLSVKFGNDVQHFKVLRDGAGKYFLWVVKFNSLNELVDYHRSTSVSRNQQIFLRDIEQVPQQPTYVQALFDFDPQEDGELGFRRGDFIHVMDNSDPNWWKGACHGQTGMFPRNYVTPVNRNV
T2 sequence (P27986 2-724): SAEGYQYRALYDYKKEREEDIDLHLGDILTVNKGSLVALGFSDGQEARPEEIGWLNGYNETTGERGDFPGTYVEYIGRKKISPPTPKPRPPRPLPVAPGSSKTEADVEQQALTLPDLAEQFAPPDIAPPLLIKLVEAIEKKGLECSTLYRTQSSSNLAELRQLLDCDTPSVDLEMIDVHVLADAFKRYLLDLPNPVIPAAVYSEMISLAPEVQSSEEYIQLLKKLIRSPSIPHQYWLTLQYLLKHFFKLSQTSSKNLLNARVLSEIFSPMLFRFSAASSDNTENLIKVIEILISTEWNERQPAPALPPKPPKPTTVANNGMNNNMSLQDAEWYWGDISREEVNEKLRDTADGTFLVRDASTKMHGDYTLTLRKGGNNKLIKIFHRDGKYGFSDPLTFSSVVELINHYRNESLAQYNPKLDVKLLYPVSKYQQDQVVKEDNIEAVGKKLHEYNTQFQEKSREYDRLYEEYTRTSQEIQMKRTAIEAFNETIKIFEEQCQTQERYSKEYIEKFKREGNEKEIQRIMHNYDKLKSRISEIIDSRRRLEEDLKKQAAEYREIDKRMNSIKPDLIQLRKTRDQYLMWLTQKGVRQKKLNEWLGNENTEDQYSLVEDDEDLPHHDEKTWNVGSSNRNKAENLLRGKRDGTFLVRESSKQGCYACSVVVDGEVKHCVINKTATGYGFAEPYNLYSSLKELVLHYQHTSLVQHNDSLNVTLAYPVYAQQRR

B1: FLAG-tagged LAT, tyrosine phosphorylated (co-expressed in 293T cells with Syk, or with ZAP-70 and Lck or Fyn) (other)
chain: MEEAILVPCVLGLLLLPILAMLMALCVHCHRLPGSYDSTSSDSLYPRGIQFKRPHTVAPWPPAYPPVTSYPPLSQPDLLPIPRSPQPLGGSHRTPSSRRDSDGANSVASYENEEPACEDADEDEDDYHNPGYLVVLPDSTPATSTAAPSAPALSTPGIRDSAFSMESIDDYVNVPESGESAEASLDGSREYVNVSQELHPGAAKTEPAALSSQEAEEVEEEGAPDYENLQELNDYKDDDDK
modifications: tyrosine phosphorylated by co-expressed PTKs; sites not mapped
notes: Made by replacing the Pst I/Cla I fragment of LAT with an oligonucleotide encoding FLAG; also called phosphorylated LAT
no binding: [1]

B2: myc-tagged mutant LAT (Y171/191F), stably expressed in Jurkat cells, C305 stimulated (other)
chain: MEEAILVPCVLGLLLLPILAMLMALCVHCHRLPGSYDSTSSDSLYPRGIQFKRPHTVAPWPPAYPPVTSYPPLSQPDLLPIPRSPQPLGGSHRTPSSRRDSDGANSVASYENEEPACEDADEDEDDYHNPGYLVVLPDSTPATSTAAPSAPALSTPGIRDSAFSMESIDDFVNVPESGESAEASLDGSREFVNVSQELHPGAAKTEPAALSSQEAEEVEEEGAPDYENLQELNSMEQKLISEEDLN
modifications: tyrosine phosphorylated upon stimulation at residues other than Y171 and Y191, less than WT
notes: also called mLAT
no binding: [2] | [3] | [4] | [5] | [6]
